Patent US20200268901A1
Values belong to the binder of their own block, whether it stands above or below them.

Columns and labels:
[1] = biological target: hCD73-his (full length extracellular domain of human CD73, residues 26-546, C-terminal polyhistidine tag) (human) (UniProt P21589); assay: SEC-MALS, hCD73-his:Fab 1:2 (4:8 uM); peak at ~12.6 min, 0.9 % of UV
[2] = biological target: hCD73-his (full length extracellular domain of human CD73, residues 26-546, C-terminal polyhistidine tag) (human) (UniProt P21589); assay: SEC-MALS, hCD73-his:Fab 1:2 (4:8 uM); peak at ~16.8 min, 0.8 % of UV
[3] = biological target: hCD73-his (full length extracellular domain of human CD73, residues 26-546, C-terminal polyhistidine tag) (human) (UniProt P21589); assay: SEC-MALS, hCD73-his:Fab 1:2 (4:8 uM); peak at ~20.1 min, 7.7 % of UV
[4] = biological target: hCD73-his (full length extracellular domain of human CD73, residues 26-546, C-terminal polyhistidine tag) (human) (UniProt P21589); assay: SEC-MALS, hCD73-his:Fab 1:2 (4:8 uM); peak at ~14.7 min, 90.7 % of UV
[5] = biological target: N-hCD73-his (N-terminal domain of human CD73, residues 26-336) (human) (UniProt P21589); assay: SEC-MALS, N-hCD73-his:Fab 1:1 (8:8 uM); peak at ~20.0 min, 4.7 % of UV
Chain of N-hCD73-his (N-terminal domain of human CD73, residues 26-336) (human) (P21589 26-336 limits assumed): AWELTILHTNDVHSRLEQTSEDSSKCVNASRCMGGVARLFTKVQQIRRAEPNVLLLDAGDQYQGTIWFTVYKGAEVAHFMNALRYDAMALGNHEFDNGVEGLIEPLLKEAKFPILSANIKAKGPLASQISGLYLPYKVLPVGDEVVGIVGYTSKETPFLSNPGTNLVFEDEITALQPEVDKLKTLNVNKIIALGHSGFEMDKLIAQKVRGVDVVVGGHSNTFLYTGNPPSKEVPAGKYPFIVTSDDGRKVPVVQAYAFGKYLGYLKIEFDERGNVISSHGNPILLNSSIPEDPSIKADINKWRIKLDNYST

[6] = biological target: N-hCD73-his (N-terminal domain of human CD73, residues 26-336) (human) (UniProt P21589); assay: SEC-MALS, N-hCD73-his:Fab 1:1 (8:8 uM); peak at ~17.4 min, 95.3 % of UV
[7] = biological target: hCD73-his (full length extracellular domain of human CD73, residues 26-546, C-terminal polyhistidine tag) (human) (UniProt P21589); assay: DLS, hCD73-his:Fab 1:2 (4:8 uM); Rh SD 0.1, %Pd 15.1 (SD 4.3), %Mass 100.0 (SD 0.0)
[8] = biological target: N-hCD73-his (N-terminal domain of human CD73, residues 26-336) (human) (UniProt P21589); assay: DLS, N-hCD73-his:Fab 1:1 (8:8 uM); Rh SD 0.1, %Pd 12.6 (SD 4.7), %Mass 100.0 (SD 0.0)
[9] = biological target: hCD73-his (full length extracellular domain of human CD73, residues 26-546, C-terminal polyhistidine tag) (human) (UniProt P21589); assay: SEC-MALS, hCD73:mAb 1:1 (2.5:[…]); peak at ~17.1 min, […] of UV
[10] = biological target: hCD73-his (full length extracellular domain of human CD73, residues 26-546, C-terminal polyhistidine tag) (human) (UniProt P21589); assay: SEC-MALS, hCD73:mAb 1:1 (2.5:[…]); peak at ~13.4 min, 1.9 % of UV
[11] = biological target: hCD73-his (full length extracellular domain of human CD73, residues 26-546, C-terminal polyhistidine tag) (human) (UniProt P21589); assay: SEC-MALS, hCD73:mAb 1:4 (2.5:10 uM); peak at ~11.7 min, […] of UV
[12] = biological target: hCD73-his (full length extracellular domain of human CD73, residues 26-546, C-terminal polyhistidine tag) (human) (UniProt P21589); assay: SEC-MALS, hCD73:mAb 1:1 (2.5:[…]); peak at ~11.5 min, 95.3 % of UV
[13] = biological target: hCD73-his (full length extracellular domain of human CD73, residues 26-546, C-terminal polyhistidine tag) (human) (UniProt P21589); assay: SEC-MALS, hCD73:mAb 1:2 (2.5:5 uM); peak at ~15.3 min, 0.6 % of UV
[14] = biological target: hCD73-his (full length extracellular domain of human CD73, residues 26-546, C-terminal polyhistidine tag) (human) (UniProt P21589); assay: SEC-MALS, hCD73:mAb 1:2 (2.5:5 uM); peak at ~11.7 min, 52.5 % of UV
[15] = biological target: hCD73-his (full length extracellular domain of human CD73, residues 26-546, C-terminal polyhistidine tag) (human) (UniProt P21589); assay: SEC-MALS, hCD73:mAb 1:2 (2.5:5 uM); peak at ~13.4 min, 17.7 % of UV
[16] = biological target: hCD73-his (full length extracellular domain of human CD73, residues 26-546, C-terminal polyhistidine tag) (human) (UniProt P21589); assay: SEC-MALS, hCD73:mAb 1:2 (2.5:5 uM); peak at ~17.1 min, 29.3 % of UV
[17] = biological target: hCD73-his (full length extracellular domain of human CD73, residues 26-546, C-terminal polyhistidine tag) (human) (UniProt P21589); assay: SEC-MALS, hCD73:mAb 1:4 (2.5:10 uM); peak at ~15.3 min, 1.2 % of UV
[18] = biological target: hCD73-his (full length extracellular domain of human CD73, residues 26-546, C-terminal polyhistidine tag) (human) (UniProt P21589); assay: SEC-MALS, hCD73:mAb 1:4 (2.5:10 uM); peak at ~13.4 min, 16.2 % of UV
[19] = biological target: hCD73-his (full length extracellular domain of human CD73, residues 26-546, C-terminal polyhistidine tag) (human) (UniProt P21589); assay: SEC-MALS, hCD73:mAb 1:4 (2.5:10 uM); peak at ~17.1 min, 58.6 % of UV
[20] = biological target: hCD73-his (full length extracellular domain of human CD73, residues 26-546, C-terminal polyhistidine tag) (human) (UniProt P21589); assay: SEC-MALS, hCD73:mAb 1:0.5 (2.5:1.25 uM); peak at ~11.7 min, 71.9 % of UV
[21] = biological target: hCD73-his (full length extracellular domain of human CD73, residues 26-546, C-terminal polyhistidine tag) (human) (UniProt P21589); assay: SEC-MALS, hCD73:mAb 1:0.5 (2.5:1.25 uM); peak at ~13.4 min, 15.8 % of UV
[22] = biological target: hCD73-his (full length extracellular domain of human CD73, residues 26-546, C-terminal polyhistidine tag) (human) (UniProt P21589); assay: SEC-MALS, hCD73:mAb 1:0.5 (2.5:1.25 uM); peak at ~17.1 min, 13.4 % of UV
[23] = biological target: N-hCD73-his (N-terminal domain of human CD73, residues 26-336) (human) (UniProt P21589); assay: SEC-MALS, N-hCD73:mAb 1:1 as printed (5:[…]); peak at ~15.9 min, […] of UV
[24] = biological target: N-hCD73-his (N-terminal domain of human CD73, residues 26-336) (human) (UniProt P21589); assay: SEC-MALS, N-hCD73:mAb 1:1 as printed (5:[…]); peak at ~17.0 min, […] of UV
[25] = biological target: hCD73-his (full length extracellular domain of human CD73, residues 26-546, C-terminal polyhistidine tag) (human) (UniProt P21589); assay: SEC-MALS, hCD73:mAb 1:0.25 (2.5:0.625 uM); peak at ~11.8 min, 42.0 % of UV
[26] = biological target: hCD73-his (full length extracellular domain of human CD73, residues 26-546, C-terminal polyhistidine tag) (human) (UniProt P21589); assay: SEC-MALS, hCD73:mAb 1:0.25 (2.5:0.625 uM); peak at ~13.4 min, 21.6 % of UV
[27] = biological target: hCD73-his (full length extracellular domain of human CD73, residues 26-546, C-terminal polyhistidine tag) (human) (UniProt P21589); assay: SEC-MALS, hCD73:mAb 1:0.25 (2.5:0.625 uM); peak at ~17.1 min, 36.4 % of UV
[28] = biological target: N-hCD73-his (N-terminal domain of human CD73, residues 26-336) (human) (UniProt P21589); assay: SEC-MALS, N-hCD73:mAb 1:1 as printed (5:[…]); peak at ~13.9 min, 0.7 % of UV
[29] = biological target: N-hCD73-his (N-terminal domain of human CD73, residues 26-336) (human) (UniProt P21589); assay: SEC-MALS, N-hCD73:mAb 1:1 as printed (5:[…]); peak at ~14.7 min, 88.3 % of UV
[30] = biological target: hCD73-his (full length extracellular domain of human CD73, residues 26-546, C-terminal polyhistidine tag) (human) (UniProt P21589); assay: DLS, hCD73:mAb 1:1 (2.5:[…]); Rh SD 1.0, %Pd 25.1 (SD 2.1), %Mass 22.3 (SD 4.9)
[31] = biological target: hCD73-his (full length extracellular domain of human CD73, residues 26-546, C-terminal polyhistidine tag) (human) (UniProt P21589); assay: DLS, hCD73:mAb 1:2 (2.5:5 uM); Rh SD 0.1, %Pd 31.3 (SD 5.5), %Mass 68.7 (SD 25.8)
[32] = biological target: hCD73-his (full length extracellular domain of human CD73, residues 26-546, C-terminal polyhistidine tag) (human) (UniProt P21589); assay: DLS, hCD73:mAb 1:4 (2.5:10 uM); Rh SD 0.9, %Pd 42.9 (SD 3.5), %Mass 90.2 (SD 17.5)
[33] = biological target: hCD73-his (full length extracellular domain of human CD73, residues 26-546, C-terminal polyhistidine tag) (human) (UniProt P21589); assay: DLS, hCD73:mAb 1:0.5 (2.5:1.25 uM); Rh SD 1.0, %Pd 31.7 (SD 8.8), %Mass 62.6 (SD 25.8)
[34] = biological target: hCD73-his (full length extracellular domain of human CD73, residues 26-546, C-terminal polyhistidine tag) (human) (UniProt P21589); assay: DLS, hCD73:mAb 1:0.25 (2.5:0.625 uM); Rh SD 1.7, %Pd 46.5 (SD 5.9), %Mass 99.9 (SD 0.1)
[35] = biological target: N-hCD73-his (N-terminal domain of human CD73, residues 26-336) (human) (UniProt P21589); assay: DLS, N-hCD73:mAb 1:1 as printed (5:[…]); Rh SD 0.3, %Pd 13.9 (SD 7.0), %Mass 100.0 (SD 0.0)

Chain of hCD73-his (full length extracellular domain of human CD73, residues 26-546, C-terminal polyhistidine tag) (human) (P21589 26-546 limits assumed): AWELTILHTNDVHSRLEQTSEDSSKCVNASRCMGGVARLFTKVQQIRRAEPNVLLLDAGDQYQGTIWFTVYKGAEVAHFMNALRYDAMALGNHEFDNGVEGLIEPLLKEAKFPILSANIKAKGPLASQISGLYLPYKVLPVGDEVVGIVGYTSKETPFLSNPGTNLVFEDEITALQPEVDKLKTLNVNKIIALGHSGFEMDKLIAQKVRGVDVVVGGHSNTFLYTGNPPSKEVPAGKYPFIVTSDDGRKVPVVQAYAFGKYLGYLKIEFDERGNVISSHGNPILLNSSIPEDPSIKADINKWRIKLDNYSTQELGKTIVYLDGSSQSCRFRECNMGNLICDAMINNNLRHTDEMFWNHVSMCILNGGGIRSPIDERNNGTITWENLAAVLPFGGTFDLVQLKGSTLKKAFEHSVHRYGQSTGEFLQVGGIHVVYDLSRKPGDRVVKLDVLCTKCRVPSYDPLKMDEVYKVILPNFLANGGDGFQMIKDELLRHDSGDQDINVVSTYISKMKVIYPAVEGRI

MW (kDa) Peak 1 [1]: 300 kDa
MW (kDa) Peak 3 [2]: 85 kDa
MW (kDa) Peak 4 [3]: 40 kDa
MW (kDa) Peak 2 [4]: 310 kDa
MW (kDa) Peak 2 [5]: 44 kDa
MW (kDa) Peak 1 [6]: 84 kDa
Rh (DLS) [7]: 6.4 nm
Rh (DLS) [8]: 4.2 nm
B1: 11F11-Fab (Fab, V domains shown, part only)
VH: QVQLVESGGGVVQPGRSLRLSCATSGFTFSNYGMHWVRQAPGKGLEWVAVILYDGSNKYYPDSVKGRFTISRDNSKNTLYLQMNSLRAEDTAVYYCARGGSSWYPDSFDIWGQGTMVTVSS
VL: DIQMTQSPSSLSASVGDRVTITCRASQGISSWLAWYQQKPEKAPKSLIYAASSLQSGVPSRFSGSGSGTDFTLTISSLQPEDFATYYCQQYNSYPLTFGGGTKVEIKR
modifications: CH1 of Fab heavy chain not stated

MW (kDa) Peak 3 [9]: 530 kDa
MW (kDa) Peak 2 [10]: 1000 kDa
MW (kDa) Peak 1 [11]: 1300 kDa
MW (kDa) Peak 1 [12]: 3300 kDa
MW (kDa) Peak 3 [13]: 220 kDa
MW (kDa) Peak 1 [14]: 1700 kDa
MW (kDa) Peak 2 [15]: 500 kDa
MW (kDa) Peak 4 [16]: 140 kDa
MW (kDa) Peak 3 [17]: 200 kDa
MW (kDa) Peak 2 [18]: 500 kDa
MW (kDa) Peak 4 [19]: 140 kDa
MW (kDa) Peak 1 [20]: 1900 kDa
MW (kDa) Peak 2 [21]: 540 kDa
MW (kDa) Peak 3 [22]: 130 kDa
MW (kDa) Peak 3 [23]: 180 kDa
MW (kDa) Peak 4 [24]: 150 kDa
MW (kDa) Peak 1 [25]: 1200 kDa
MW (kDa) Peak 2 [26]: 520 kDa
MW (kDa) Peak 3 [27]: 120 kDa
MW (kDa) Peak 1 [28]: 390 kDa
MW (kDa) Peak 2 [29]: 210 kDa
Rh (DLS) [30]: 29.9 nm
Rh (DLS) [31]: 14.4 nm
Rh (DLS) [32]: 11.4 nm
Rh (DLS) [33]: 17.5 nm
Rh (DLS) [34]: 13.2 nm
Rh (DLS) [35]: 6.7 nm
B2: CD73.4-hybrid (antibody, from a related filing, V domains shown, part only)
VH: QVQLVESGGGVVQPGRSLRLSCAASGFTFSNYGMHWVRQAPGKGLEWVAVILYDGSNKYYPDSVKGRFTISRDNSKNTLYLQMNSLRAEDTAVYYCARGGSSWYPDSFDIWGQGTMVTVSS
VL: DIQMTQSPSSLSASVGDRVTITCRASQGISSWLAWYQQKPEKAPKSLIYAASSLQSGVPSRFSGSGSGTDFTLTISSLQPEDFATYYCQQYNSYPLTFGGGTKVEIKR
